One block for each binder: values may come before it.
Target: T1, recombinant COMA (Ctf19-Okp1-Mcm21-Ame1) inner kinetochore sub-complex (budding yeast (S. cerevisiae), UniProt P53298 1-406; P38313 1-324; Q02732 1-369; Q06675 1-368)
T1 construct: Okp1, budding yeast, essential COMA component; His-Okp1 printed as 49 kDa; Ame1, budding yeast, essential COMA component; printed as 37 kDa; Ctf19, budding yeast, non-essential COMA component; 'coding regions' cloned; printed as 43 kDa; Mcm21, budding yeast, non-essential COMA component; also called COMA components; source: E. coli RosettaGami2(DE3)pLysS, four subunits co-expressed, purified …
T1 sequence (P53298 whole entry, chain 1 of 4): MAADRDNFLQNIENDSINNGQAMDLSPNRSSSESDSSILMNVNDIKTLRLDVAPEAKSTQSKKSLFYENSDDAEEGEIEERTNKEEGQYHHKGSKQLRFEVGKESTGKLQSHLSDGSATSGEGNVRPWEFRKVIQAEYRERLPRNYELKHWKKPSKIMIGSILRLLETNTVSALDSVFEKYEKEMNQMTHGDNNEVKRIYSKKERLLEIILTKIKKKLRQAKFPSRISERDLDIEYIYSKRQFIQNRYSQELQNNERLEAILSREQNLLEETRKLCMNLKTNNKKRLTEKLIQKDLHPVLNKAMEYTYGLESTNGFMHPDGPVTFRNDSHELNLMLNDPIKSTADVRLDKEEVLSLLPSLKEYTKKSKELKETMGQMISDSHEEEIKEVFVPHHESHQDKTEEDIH
T1 sequence (P38313 whole entry, chain 2 of 4): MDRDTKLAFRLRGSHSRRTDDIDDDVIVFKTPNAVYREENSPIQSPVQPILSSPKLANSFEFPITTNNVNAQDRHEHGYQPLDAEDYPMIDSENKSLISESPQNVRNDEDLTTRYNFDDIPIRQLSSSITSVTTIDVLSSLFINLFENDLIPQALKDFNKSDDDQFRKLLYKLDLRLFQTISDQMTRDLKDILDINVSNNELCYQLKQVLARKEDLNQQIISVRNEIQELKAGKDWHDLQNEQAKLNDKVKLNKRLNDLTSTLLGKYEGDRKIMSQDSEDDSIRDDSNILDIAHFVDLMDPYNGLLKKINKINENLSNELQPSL
T1 sequence (Q02732 whole entry, chain 3 of 4): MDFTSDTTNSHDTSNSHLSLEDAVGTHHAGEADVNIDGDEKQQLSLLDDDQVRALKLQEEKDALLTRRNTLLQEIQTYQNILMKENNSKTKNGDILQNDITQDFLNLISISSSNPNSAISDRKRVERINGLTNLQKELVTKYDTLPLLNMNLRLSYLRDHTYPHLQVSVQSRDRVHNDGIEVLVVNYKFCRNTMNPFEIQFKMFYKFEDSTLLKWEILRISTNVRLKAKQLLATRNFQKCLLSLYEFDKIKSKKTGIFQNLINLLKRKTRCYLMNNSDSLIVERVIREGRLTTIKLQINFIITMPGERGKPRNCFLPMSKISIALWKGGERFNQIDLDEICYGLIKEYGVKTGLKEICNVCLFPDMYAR
T1 sequence (Q06675 whole entry, chain 4 of 4): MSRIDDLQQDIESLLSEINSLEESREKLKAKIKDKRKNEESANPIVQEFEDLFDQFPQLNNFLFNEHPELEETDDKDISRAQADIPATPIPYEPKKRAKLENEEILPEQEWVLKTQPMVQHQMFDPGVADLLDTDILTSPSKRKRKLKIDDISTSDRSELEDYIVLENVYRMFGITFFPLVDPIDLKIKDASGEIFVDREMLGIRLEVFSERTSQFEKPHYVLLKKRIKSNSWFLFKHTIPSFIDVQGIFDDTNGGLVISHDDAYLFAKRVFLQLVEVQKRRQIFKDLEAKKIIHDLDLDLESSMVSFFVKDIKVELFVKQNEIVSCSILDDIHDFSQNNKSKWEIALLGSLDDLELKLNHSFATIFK
Assay: pull-down; GST fusion proteins incubated with purified COMA in 50 mM HEPES-NaOH pH 7.4, 150 mM NaCl, 5% glycerol, 0.05% Igepal, 2 mM DTT, 0.5 mM EDTA, 20 min at 4°C, then 1 h on GST-Trap Agarose at 4°C, three washes; Coomassie blue staining, anti-His western blot and mass spectrometry
Conditions: both partners purified

binding result: binds
B1: GST-Sli15 (1-401 aa) (domain or fragment, budding yeast (S. cerevisiae), UniProt P38283 1-401, looked up)
chain: MDWAIKAARKKTQRKPGSTRSIIETLDDLNNLTTDAHSEINQRLYESSEWLRNNVYMNTLKYEDKKMEESLISPENTHNKMDVEFPKMKGEYELSNSQNDAAKDVTKTPRNGLHNDKSITPKSLRRKEVTEGMNRFSIHDTNKSPVEPLNSVKVDANESEKSSPWSPYKVEKVLRESSKTSESPINTKRFDNQTWAAKEEMENEPILQALKKAESVKVKPPPNSGIARSQRRSNMFVPLPNKDPLIIQHIPPTKSSGSIPKVRTVKESPIAFKKKSTINSPAIRAVENSDTAGSTKASSVFDRLSSIPTKSFENKISRGNVGHKYSSSSIDLTGSPMKKVSQKFKSINSTDTDMQEALRDIFSVKNKITKNNSPKGKNSRKSSIPRFDKTSLKLTTHKKLA
notes: Printed size 72 kDa; source: E. coli RosettaGami2, purified (GSTrap FF, Superdex 200)

binding result: binds
B2: GST-Sli15 (393-698 aa) (domain or fragment, budding yeast (S. cerevisiae), UniProt P38283 393-698, looked up)
chain: KLTTHKKLAIIAEQKKKSKHSSDVHKTGSRPHSISPTKISVDSSSPSKEVKNYYQSPVRGYLRPTKASISPNKNKNLTTSQTPHRLKIKEKTLRKLSPNIADISKPESRKSKNYRLTNLQLLPPAEAERDDLKKKFDKRLSGIMRSQQEHHRRKQEKQKRMSHLEQDLKKQTSFSNDYKDIRLKESLAPFDNHVRDTINKNTAFSTDNILATINTVDHREIIGNVTPKIASVNDSLPEINTDSEDEASVTLAAWAKSPYLQEQLIRQQDINPQTIFGPIPPLHTDEIFPNPRLNRLKPRQIVPKRS
notes: Sli15 (yeast INCENP), budding yeast, residues 393-698; Printed size 60 kDa; also called pGEX6P-1-GST-SLI15 (393-698); source: E. coli RosettaGami2, purified (GSTrap FF, Superdex 200)
